We go through five sequences from publication PMC3951440, “Assessing Specific Oligonucleotides and Small Molecule Antibiotics for the Ability to Inhibit the CRD-BP-CD44 RNA Interaction” (PLoS ONE, 2014).

Data set [1] concerns the target CRD-BP (IMP1) (mouse) (UniProt O88477). Kind of data set: EMSA. To be noted: EMSA: 5 mM Tris-Cl pH 7.4, 2.5 mM EDTA, 2 mM DTT, 5% glycerol, 0.1 mg/ml BSA, 0.5 mg/ml yeast tRNA, 5 U RNasin; 30 C with ice steps; 40 nM RNA probe. On the technique in general: In EMSA bound probe runs differently from free probe, usually more slowly.
The target is the same in data set [2]. Kind of data set: competition. To be noted: EMSA: 5 mM Tris-Cl pH 7.4, 2.5 mM EDTA, 2 mM DTT, 5% glycerol, 0.1 mg/ml BSA, 0.5 mg/ml yeast tRNA, 5 U RNasin; 30 C with ice steps; 40 nM RNA probe.

CRD-BP (IMP1) (mouse), sequence (O88477 whole entry): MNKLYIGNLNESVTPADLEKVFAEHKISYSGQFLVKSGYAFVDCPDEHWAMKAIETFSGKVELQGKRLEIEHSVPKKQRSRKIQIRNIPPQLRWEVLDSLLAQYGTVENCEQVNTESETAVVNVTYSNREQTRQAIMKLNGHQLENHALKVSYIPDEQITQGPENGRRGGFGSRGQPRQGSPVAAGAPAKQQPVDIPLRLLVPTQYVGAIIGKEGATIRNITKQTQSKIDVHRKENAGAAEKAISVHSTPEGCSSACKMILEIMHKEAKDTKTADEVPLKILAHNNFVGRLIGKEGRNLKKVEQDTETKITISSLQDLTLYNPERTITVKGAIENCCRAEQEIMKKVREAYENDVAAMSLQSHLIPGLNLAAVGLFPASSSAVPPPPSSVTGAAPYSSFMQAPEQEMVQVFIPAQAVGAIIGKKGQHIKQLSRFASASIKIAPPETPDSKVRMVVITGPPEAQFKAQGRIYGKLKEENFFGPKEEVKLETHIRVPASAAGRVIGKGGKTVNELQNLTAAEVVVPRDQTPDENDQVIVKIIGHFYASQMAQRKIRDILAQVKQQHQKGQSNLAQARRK

“GGAAAUUAGGGCCCAAUUAAUAAUCAGCAAGAAUUUGAUCGUUCCAGUUCCCACUUGGAGGCCUUUCAUCCCUCGGGUGUGCUAUGGAUGGCUUCUAACAAAAACUACACAUAUGUAUUCCUGAUCGCCAACCUUUCCCCCACCAGCUAAGGACAUUUCCCAGGGUUAAUAGGGCCUGGU [P6 RNA]”: in data set [1], the binding result is reported as “binds”. Turning to “GGAAAUUAGGGCCCAAUUAAUAAUCAGCAAGAAUUUGAUCGUUCCAGUUCCCACUUGGAGGCCUUUCAUCCCUCGGGUGUGCUAUGGAUGGCUUCUAACAAAAACUACACAUAUGUAUUCCUGAUCGCCAACCUUUCCCCCACCAGCUAA [P5 RNA]”, the binding signal in data set [1] is 15 % bound. “GGAAAUUAGGGCCCAAUUAAUAAUCAGCAAGAAUUUGAUCGUUCCAGUUCCCACUUGGAGGCCUUUCAUCCCUCGGGUGUGCUAUGGAUGGCUUCUAACAAAAACUACACAUAUGUAUUCCU [P4 RNA]”: the binding result in data set [1] was “no binding”. In general, Kd refers to the constant that tells how readily two partners part at equilibrium. As to “GGAAAUUAGGGCCCAAUUAAUAAUCAGCAAGAAUUUGAUCGUUCCAGUUCCCACUUGGAGGCCUUUCAUCCCUCGGGUGUGCUAUGGAUGGCUUCUAACAAAAACUACACAUAUGUAUUCCUGAUCGCCAACCUUUCCCCCACCAGCUAAGGACAUUUCCCAGGGUUAAUAGGGCCUGGUCCCUGGGAGGAAAUUU [CD44 Fragment 4 RNA]”, the Kd in data set [1] worked out at 645 nM. In addition, the binding result in data set [2] is “binds”. “GGAAAUUAGGGCCCAAUUAAUAAUCAGCAAGAAUUUGAUCGUUCCAGUUCCCACUUGGAGGC [P2 RNA]” gave a binding signal in data set [1] of 5 % bound.
